Measured values: patent US20200157174A1 (DRAGONFLY THERAPEUTICS, published 2020)
Where a chain is given by its changes, count along the chain named.

T1: recombinant human NKG2D-Fc (human, UniProt P26718 73-216)
T1 construct: extracellular domain; also called human NKG2D-Fc fusion protein; NKG2D-Fc-biotin; not shown: human IgG1 Fc domain
T1 sequence (looked up): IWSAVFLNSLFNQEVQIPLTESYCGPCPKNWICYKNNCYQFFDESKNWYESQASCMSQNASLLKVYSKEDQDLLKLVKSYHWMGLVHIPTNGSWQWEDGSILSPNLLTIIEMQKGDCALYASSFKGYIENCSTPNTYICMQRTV

T2: recombinant cynomolgus NKG2D-Fc (cynomolgus; human, UniProt P61252 73-216)
T2 construct: extracellular domain; also called cynomolgus NKG2D-Fc fusion protein; not shown: human IgG1 Fc domain
T2 sequence (looked up): T1 sequence (looked up) with D43N, T133I

T3: recombinant mouse NKG2D-Fc (mouse; human, UniProt O54709 90-232)
T3 construct: extracellular domain; also called mouse NKG2D-Fc fusion protein; Mouse NKG2D-Fc-biotin; not shown: human IgG1 Fc domain
T3 sequence (looked up): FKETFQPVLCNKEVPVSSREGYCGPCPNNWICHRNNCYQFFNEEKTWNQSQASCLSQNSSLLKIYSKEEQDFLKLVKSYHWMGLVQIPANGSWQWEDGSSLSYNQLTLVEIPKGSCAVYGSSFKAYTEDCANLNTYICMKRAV

B1: ADI-29378 (antibody, V domains shown)
VH: QVQLVQSGAEVKKPGASVKVSCKASGYTFTSYYMHWVRQAPGQGLEWMGIINPSGGSTSYAQKFQGRVTMTRDTSTSTVYMELSSLRSEDTAVYYCAREGAGFAYGMDYYYMDVWGKGTTVTVSS
VL: EIVLTQSPATLSLSPGERATLSCRASQSVSSYLAWYQQKPGQAPRLLIYDASNRATGIPARFSGSGSGTDFTLTISSLEPEDFAVYYCQQSDNWPFTFGGGTKVEIK
notes: also called E78
B2: ADI-27727 (antibody, V domains shown)
VH: QVQLVQSGAEVKKPGSSVKVSCKASGGTFSSYAISWVRQAPGQGLEWMGGIIPIFGTANYAQKFQGRVTITADESTSTAYMELSSLRSEDTAVYYCARGDSSIRHAYYYYGMDVWGQGTTVTVSS
VL: not shown
B3: ADI-27749 (antibody, V domains shown)
VH: EVQLVESGGGLVKPGGSLRLSCAASGFTFSSYSMNWVRQAPGKGLEWVSSISSSSSYIYYADSVKGRFTISRDNAKNSLYLQMNSLRAEDTAVYYCARGAPMGAAAGWFDPWGQGTLVTVSS
VL: DIQMTQSPSSVSASVGDRVTITCRASQGISSWLAWYQQKPGKAPKLLIYAASSLQSGVPSRFSGSGSGTDFTLTISSLQPEDFATYYCQQGVSFPRTFGGGTKVEIK
notes: also called A49
B4: ADI-27705 (antibody, V domains shown)
VH: QVQLQQWGAGLLKPSETLSLTCAVYGGSFSGYYWSWIRQPPGKGLEWIGEIDHSGSTNYNPSLKSRVTISVDTSKNQFSLKLSSVTAADTAVYYCARARGPWSFDPWGQGTLVTVSS
VL: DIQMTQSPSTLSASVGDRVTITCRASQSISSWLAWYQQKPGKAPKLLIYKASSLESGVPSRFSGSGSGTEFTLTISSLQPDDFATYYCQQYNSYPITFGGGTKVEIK
B5: ADI-29403 (antibody, V domains shown)
VH: B4 VH
VL: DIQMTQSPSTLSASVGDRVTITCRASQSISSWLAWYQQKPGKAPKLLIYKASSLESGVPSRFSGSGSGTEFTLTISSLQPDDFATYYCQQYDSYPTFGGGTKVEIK
B6: ADI-27740 (antibody, V domains shown)
VH: B4 VH
VL: DIQMTQSPSTLSASVGDRVTITCRASQSIGSWLAWYQQKPGKAPKLLIYKASSLESGVPSRFSGSGSGTEFTLTISSLQPDDFATYYCQQYHSFYTFGGGTKVEIK
notes: also called A40
B7: ADI-29407 (antibody, V domains shown)
VH: B4 VH
VL: B6 VL with G30S, H92Q, Y95P
B8: ADI-29429 (antibody, V domains shown)
VH: B4 VH
VL: DIQMTQSPSTLSASVGDRVTITCRASQSIGSWLAWYQQKPGKAPKLLIYKASSLESGVPSRFSGSGSGTEFTLTISSLQPDDFATYYCQQYELYSYTFGGGTKVEIK
B9: ADI-29419 (antibody, V domains shown)
VH: B4 VH
VL: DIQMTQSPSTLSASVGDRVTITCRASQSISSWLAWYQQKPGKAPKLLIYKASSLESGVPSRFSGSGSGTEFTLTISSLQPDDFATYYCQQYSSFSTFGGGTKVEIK
B10: ADI-29404 (antibody, V domains shown)
VH: B4 VH
VL: B6 VL with G30S, Q89E, H92D, F94Y, Y95P
notes: also called F04
B11: ADI-29405 (antibody, V domains shown)
VH: B4 VH
VL: B6 VL with G30S, H92G, Y95P
B12: ADI-29447 (antibody, V domains shown)
VH: B4 VH
VL: B6 VL with G30S, H92D, S93T, Y95I
notes: also called F47
B13: ADI-29425 (antibody, V domains shown)
VH: B4 VH
VL: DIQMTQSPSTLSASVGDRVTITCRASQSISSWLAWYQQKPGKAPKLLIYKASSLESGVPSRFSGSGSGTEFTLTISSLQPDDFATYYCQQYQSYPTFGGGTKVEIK
B14: ADI-29421 (antibody, V domains shown)
VH: B4 VH
VL: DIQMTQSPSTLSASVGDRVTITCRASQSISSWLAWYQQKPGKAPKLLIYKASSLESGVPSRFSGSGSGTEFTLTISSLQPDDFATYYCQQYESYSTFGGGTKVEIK
B15: ADI-27743 (antibody, V domains shown)
VH: B4 VH
VL: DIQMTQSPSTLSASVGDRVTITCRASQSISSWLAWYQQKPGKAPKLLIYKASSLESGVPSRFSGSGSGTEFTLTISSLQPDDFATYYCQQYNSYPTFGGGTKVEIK
B16: ADI-27741 (antibody, V domains shown)
VH: B4 VH
VL: B6 VL with Y91S, H92N, F94Y
B17: ADI-29426 (antibody, V domains shown)
VH: B4 VH
VL: B6 VL with Y95P
B18: ADI-29399 (antibody, V domains shown)
VH: B4 VH
VL: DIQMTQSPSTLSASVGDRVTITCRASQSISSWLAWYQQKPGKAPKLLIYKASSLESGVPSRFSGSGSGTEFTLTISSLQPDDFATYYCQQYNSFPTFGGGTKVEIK
B19: ADI-29401 (antibody, V domains shown)
VH: B4 VH
VL: B6 VL with H92D, S93I, F94Y, Y95P
B20: ADI-29424 (antibody, V domains shown)
VH: B4 VH
VL: B6 VL with G30S, H92D, Y95I
B21: ADI-28226 (antibody, V domains shown)
VH: B4 VH
VL: B8 VL with G30S, E92G, L93S, Y94F, S95P, Y96I
notes: also called C26

The binders below were run against T1, recombinant human NKG2D-Fc (assay: ELISA on coated NKG2D-Fc;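 further: titrated NKG2D-binding domains on plate-bound human, mouse or cynomolgus NKG2D ectodomain–human IgG1 Fc fusions, detected with HRP anti-human kappa secondary and TMB, absorbance at 450 nm corrected at 540 nm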).
Excerpt: (§1) After purification, NKG2D-Fc fusion proteins were adsorbed to wells of microplates. After blocking the wells with bovine serum albumin to prevent non-specific binding, NKG2D-binding domains were titrated and added to the wells pre-adsorbed with NKG2D-Fc fusion proteins. Primary antibody binding was detected using a secondary antibody which was conjugated to horseradish peroxidase and specifically recognizes a human kappa light chain to avoid Fc cross-reactivity. 3,3′,5,5′-Tetramethylbenzidine (TMB), a substrate for horseradish peroxidase, was added to the wells to visualize the binding signal, whose absorbance was measured at 450 nm and corrected at 540 nM.

Binding result, binds:
B1, B2, B3, B4, B5, B6, B7, B8, B9, B10, B11, B12, B13, B14, B15, B16, B17, B18, B19, B20, B21

These binders were tested against T2, recombinant cynomolgus NKG2D-Fc (assay: ELISA on coated NKG2D-Fc;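 further: titrated NKG2D-binding domains on plate-bound human, mouse or cynomolgus NKG2D ectodomain–human IgG1 Fc fusions, detected with HRP anti-human kappa secondary and TMB, absorbance at 450 nm corrected at 540 nm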).
Excerpt: as §1

Binding result, binds:
B1, B2, B3, B4, B5, B6, B7, B8, B9, B10, B11, B12, B13, B14, B15, B16, B17, B18, B19, B20, B21

These binders were tested against T3, recombinant mouse NKG2D-Fc (assay: ELISA on coated NKG2D-Fc;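 further: titrated NKG2D-binding domains on plate-bound human, mouse or cynomolgus NKG2D ectodomain–human IgG1 Fc fusions, detected with HRP anti-human kappa secondary and TMB, absorbance at 450 nm corrected at 540 nm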).
Excerpt: as §1

Binding result, binds:
B1, B2, B3, B4, B5, B6, B7, B8, B9, B10, B11, B12, B13, B14, B15, B16, B17, B18, B19, B20, B21
